Measurements published in IntAct's records for PubMed 31515488.

B1: Macrophage scavenger receptor types I and II (Homo sapiens), P21757 (parent)
chain: MEQWDHFHNQQEDTDSCSESVKFDARSMTALLPPNPKNSPSLQEKLKSFKAALIALYLLVFAVLIPLIGIVAAQLLKWETKNCSVSSTNANDITQSLTGKGNDSEEEMRFQEVFMEHMSNMEKRIQHILDMEANLMDTEHFQNFSMTTDQRFNDILLQLSTLFSSVQGHGNAIDEISKSLISLNTTLLDLQLNIENLNGKIQENTFKQQEEISKLEERVYNVSAEIMAMKEEQVHLEQEIKGEVKVLNNITNDLRLKDWEHSQTLRNITLIQGPPGPPGEKGDRGPTGESGPRGFPGPIGPPGLKGDRGAIGFPGSRGLPGYAGRPGNSGPKGQKGEKGSGNTLTPFTKVRLVGGSGPHEGRVEILHSGQWGTICDDRWEVRVGQVVCRSLGYPGVQAVHKAAHFGQGTGPIWLNEVFCFGRESSIEECKIRQWGTRACSHSEDAGVTCTL
B2: Serpin I2 (Homo sapiens), O75830 (parent)
chain: MDTIFLWSLLLLFFGSQASRCSAQKNTEFAVDLYQEVSLSHKDNIIFSPLGITLVLEMVQLGAKGKAQQQIRQTLKQQETSAGEEFFVLKSFFSAISEKKQEFTFNLANALYLQEGFTVKEQYLHGNKEFFQSAIKLVDFQDAKACAEMISTWVERKTDGKIKDMFSGEEFGPLTRLVLVNAIYFKGDWKQKFRKEDTQLINFTKKNGSTVKIPMMKALLRTKYGYFSESSLNYQVLELSYKGDEFSLIIILPAEGMDIEEVEKLITAQQILKWLSEMQEEEVEISLPRFKVEQKVDFKDVLYSLNITEIFSGGCDLSGITDSSEVYVSQVTQKVFFEINEDGSEAATSTGIHIPVIMSLAQSQFIANHPFLFIMKHNPTESILFMGRVTNPDTQEIKGRDLDSL
B3: "N-acyl-aromatic-L-amino acid amidohydrolase (carboxylate-forming)" (Homo sapiens), Q96HD9 (parent)
chain: MCSLPVPREPLRRVAVTGGTHGNEMSGVYLARHWLHAPAELQRASFSAVPVLANPAATSGCRRYVDHDLNRTFTSSFLNSRPTPDDPYEVTRARELNQLLGPKASGQAFDFVLDLHNTTANMGTCLIAKSSHEVFAMHLCRHLQLQYPELSCQVFLYQRSGEESYNLDSVAKNGLGLELGPQPQGVLRADIFSRMRTLVATVLDFIELFNQGTAFPAFEMEAYRPVGVVDFPRTEAGHLAGTVHPQLQDRDFQPLQPGAPIFQMFSGEDLLYEGESTVYPVFINEAAYYEKGVAFVQTEKFTFTVPAMPALTPAPSPAS
partner: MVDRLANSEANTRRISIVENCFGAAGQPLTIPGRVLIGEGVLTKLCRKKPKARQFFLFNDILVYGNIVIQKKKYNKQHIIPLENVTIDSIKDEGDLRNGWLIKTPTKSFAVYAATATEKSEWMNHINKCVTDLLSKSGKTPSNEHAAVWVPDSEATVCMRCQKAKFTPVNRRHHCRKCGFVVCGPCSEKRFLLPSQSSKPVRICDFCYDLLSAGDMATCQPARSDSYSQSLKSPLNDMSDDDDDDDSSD
B4: Vesicle transport through interaction with t-SNAREs homolog 1B (Homo sapiens), Q9UEU0 (parent)
chain: MASSAASSEHFEKLHEIFRGLHEDLQGVPERLLGTAGTEEKKKLIRDFDEKQQEANETLAEMEEELRYAPLSFRNPMMSKLRNYRKDLAKLHREVRSTPLTATPGGRGDMKYGIYAVENEHMNRLQSQRAMLLQGTESLNRATQSIERSHRIATETDQIGSEIIEELGEQRDQLERTKSRLVNTSENLSKSRKILRSMSRKVTTNKLLLSIIILLELAILGGLVYYKFFRSH
partner: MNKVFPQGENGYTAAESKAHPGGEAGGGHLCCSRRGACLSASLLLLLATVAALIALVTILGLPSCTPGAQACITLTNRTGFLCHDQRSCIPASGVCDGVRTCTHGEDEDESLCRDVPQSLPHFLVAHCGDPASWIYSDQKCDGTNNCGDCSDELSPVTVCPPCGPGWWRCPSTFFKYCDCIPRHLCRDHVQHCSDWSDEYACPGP
B5: Microtubule-associated tumor suppressor candidate 2 (Homo sapiens), Q5JR59-3 (parent)
chain: MGHCCCKPYNCLQCLDKTNESALVKEKELSIELANIRDEVAFHTAKCEKLQKEKEELERRFEDEVKRLGWQQQAELQELEERLQLQFEAEMARLQEEHGDQLLSIRCQHQEQVEDLTASHDAALLEMENNHTVAITILQDDHDHKVQELMSTHELEKKELEENFEKLRLSLQDQVDTLTFQSQSLRDRARRFEEALRKNTEEQLEIALAPYQHLEEDMKSLKQVLEMKNQQIHEQEKKILELEKLAEKNIILEEKIQVLQQQNEDLKARIDQNTVVTRQLSEENANLQEYVEKETQEKKRLSRTNEELLWKLQTGDPTSPIKLSPTSPVYRGSSSGPSSPARVSTTPR
partner: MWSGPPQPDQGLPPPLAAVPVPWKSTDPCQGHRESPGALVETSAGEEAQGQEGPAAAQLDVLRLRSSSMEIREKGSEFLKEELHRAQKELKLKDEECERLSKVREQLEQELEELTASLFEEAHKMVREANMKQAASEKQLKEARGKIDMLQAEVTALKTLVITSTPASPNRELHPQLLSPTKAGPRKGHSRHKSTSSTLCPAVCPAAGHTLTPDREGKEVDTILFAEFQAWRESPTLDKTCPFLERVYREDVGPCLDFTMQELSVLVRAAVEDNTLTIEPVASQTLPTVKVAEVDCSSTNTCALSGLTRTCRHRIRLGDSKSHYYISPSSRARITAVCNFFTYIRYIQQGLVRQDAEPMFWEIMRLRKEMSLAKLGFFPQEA
B6: MAP kinase-activated protein kinase 3 (Homo sapiens), Q16644 (parent)
chain: MDGETAEEQGGPVPPPVAPGGPGLGGAPGGRREPKKYAVTDDYQLSKQVLGLGVNGKVLECFHRRTGQKCALKLLYDSPKARQEVDHHWQASGGPHIVCILDVYENMHHGKRCLLIIMECMEGGELFSRIQERGDQAFTEREAAEIMRDIGTAIQFLHSHNIAHRDVKPENLLYTSKEKDAVLKLTDFGFAKETTQNALQTPCYTPYYVAPEVLGPEKYDKSCDMWSLGVIMYILLCGFPPFYSNTGQAISPGMKRRIRLGQYGFPNPEWSEVSEDAKQLIRLLLKTDPTERLTITQFMNHPWINQSMVVPQTPLHTARVLQEDKDHWDEVKEEMTSALATMRVDYDQVKIKDLKTSNNRLLNKRRKKQAGSSSASQGCNNQ
B7: Protein LDOC1 (Homo sapiens), O95751 (parent)
chain: MVDELVLLLHALLMRHRALSIENSQLMEQLRLLVCERASLLRQVRPPSCPVPFPETFNGESSRLPEFIVQTASYMLVNENRFCNDAMKVAFLISLLTGEAEEWVVPYIEMDSPILGDYRAFLDEMKQCFGWDDDEDDDDEEEEDDY
partner: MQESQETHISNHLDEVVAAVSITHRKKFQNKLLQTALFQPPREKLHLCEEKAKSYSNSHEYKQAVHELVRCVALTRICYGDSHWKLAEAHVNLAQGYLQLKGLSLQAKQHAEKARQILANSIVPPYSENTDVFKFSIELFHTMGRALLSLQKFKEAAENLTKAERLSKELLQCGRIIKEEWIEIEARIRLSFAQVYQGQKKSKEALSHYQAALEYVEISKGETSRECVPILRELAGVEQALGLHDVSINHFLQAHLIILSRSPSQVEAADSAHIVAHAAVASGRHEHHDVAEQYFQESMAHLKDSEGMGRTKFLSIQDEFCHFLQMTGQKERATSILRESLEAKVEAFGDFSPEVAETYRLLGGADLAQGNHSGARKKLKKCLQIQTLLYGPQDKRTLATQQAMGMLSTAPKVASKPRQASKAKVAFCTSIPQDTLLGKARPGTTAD

Variants of: B1
Details: with sc22a_human SEC22A
V113A was tested, and the “effect of a mutation on the interaction” value was “with no effect”.
For P275A, the “effect of a mutation on the interaction” value was “with no effect”.
In the case of P346L, the “effect of a mutation on the interaction” value is reported as “with no effect”.

Variants of: B2
Details: with ubql1_human UBQLN1, Q9UMX0
Sequence of ubql1_human UBQLN1, Q9UMX0 (Q9UMX0 whole entry): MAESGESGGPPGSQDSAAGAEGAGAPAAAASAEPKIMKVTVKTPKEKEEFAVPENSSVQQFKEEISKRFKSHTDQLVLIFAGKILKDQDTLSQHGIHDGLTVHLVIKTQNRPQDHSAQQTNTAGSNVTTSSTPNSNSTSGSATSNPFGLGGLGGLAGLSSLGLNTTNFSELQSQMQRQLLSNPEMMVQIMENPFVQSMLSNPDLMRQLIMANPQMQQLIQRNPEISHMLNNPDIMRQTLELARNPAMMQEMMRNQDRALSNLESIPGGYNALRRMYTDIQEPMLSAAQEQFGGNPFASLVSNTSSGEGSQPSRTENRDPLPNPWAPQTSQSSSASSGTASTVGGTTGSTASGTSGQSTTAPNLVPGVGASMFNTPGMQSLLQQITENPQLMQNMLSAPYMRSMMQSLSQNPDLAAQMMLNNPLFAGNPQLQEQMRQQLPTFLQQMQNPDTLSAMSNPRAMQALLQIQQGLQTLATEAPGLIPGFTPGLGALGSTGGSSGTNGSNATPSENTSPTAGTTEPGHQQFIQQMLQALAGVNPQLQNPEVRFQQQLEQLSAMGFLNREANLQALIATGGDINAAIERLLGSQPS
In the case of E148G, the “effect of a mutation on the interaction” value is reported as “with no effect”.

Variants of: B2
Details: with bag6_human BAG6, P46379
Sequence of bag6_human BAG6, P46379 (P46379 whole entry): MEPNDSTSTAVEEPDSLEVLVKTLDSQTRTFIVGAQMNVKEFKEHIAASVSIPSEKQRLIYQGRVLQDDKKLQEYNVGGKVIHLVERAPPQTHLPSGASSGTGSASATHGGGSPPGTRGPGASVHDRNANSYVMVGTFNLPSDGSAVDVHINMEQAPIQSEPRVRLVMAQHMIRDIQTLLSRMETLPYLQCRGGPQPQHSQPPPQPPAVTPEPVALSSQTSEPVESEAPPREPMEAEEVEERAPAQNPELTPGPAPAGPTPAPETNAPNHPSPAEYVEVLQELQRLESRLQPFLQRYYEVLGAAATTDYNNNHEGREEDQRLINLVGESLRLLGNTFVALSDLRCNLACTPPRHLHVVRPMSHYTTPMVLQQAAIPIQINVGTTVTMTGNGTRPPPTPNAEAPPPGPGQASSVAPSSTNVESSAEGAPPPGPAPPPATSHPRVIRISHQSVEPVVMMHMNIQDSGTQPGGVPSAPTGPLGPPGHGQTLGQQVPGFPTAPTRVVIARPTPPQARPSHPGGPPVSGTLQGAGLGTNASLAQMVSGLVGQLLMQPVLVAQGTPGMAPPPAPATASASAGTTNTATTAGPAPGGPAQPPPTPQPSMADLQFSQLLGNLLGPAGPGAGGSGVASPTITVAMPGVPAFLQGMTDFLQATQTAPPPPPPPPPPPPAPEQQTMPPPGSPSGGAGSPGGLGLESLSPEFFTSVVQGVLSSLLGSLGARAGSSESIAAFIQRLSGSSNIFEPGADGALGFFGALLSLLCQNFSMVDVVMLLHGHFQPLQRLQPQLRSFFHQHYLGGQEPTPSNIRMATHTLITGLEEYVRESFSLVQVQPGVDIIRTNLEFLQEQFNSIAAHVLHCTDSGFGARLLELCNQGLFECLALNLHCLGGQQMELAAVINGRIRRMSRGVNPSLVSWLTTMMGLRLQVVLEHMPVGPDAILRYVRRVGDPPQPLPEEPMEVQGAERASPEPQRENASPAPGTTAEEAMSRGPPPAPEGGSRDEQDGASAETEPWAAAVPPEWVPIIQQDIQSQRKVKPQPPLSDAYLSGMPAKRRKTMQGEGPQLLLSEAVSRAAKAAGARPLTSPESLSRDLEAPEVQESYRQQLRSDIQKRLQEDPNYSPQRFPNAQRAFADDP
For E148G, the “effect of a mutation on the interaction” value was “with no effect”.

Variants of: B3
Details: with pkhf2_human PLEKHF2, Q9H8W4
In the case of R8Q, the “effect of a mutation on the interaction” value is reported as “disrupting interaction strength”.

Variants of: B4
Details: with lrad1_human LDLRAD1, Q5T700
R124Q was tested, and the “effect of a mutation on the interaction” value was “with no effect”.
In the case of R176H, the “effect of a mutation on the interaction” value is reported as “with no effect”.

Variants of: B5
Details: with RAB3IL1, Q8TBN0
In the case of A89V, the “effect of a mutation on the interaction” value is reported as “with no effect”.

Variants of: B6
Details: with mk14_human MAPK14, Q16539
Sequence of mk14_human MAPK14, Q16539 (Q16539 whole entry): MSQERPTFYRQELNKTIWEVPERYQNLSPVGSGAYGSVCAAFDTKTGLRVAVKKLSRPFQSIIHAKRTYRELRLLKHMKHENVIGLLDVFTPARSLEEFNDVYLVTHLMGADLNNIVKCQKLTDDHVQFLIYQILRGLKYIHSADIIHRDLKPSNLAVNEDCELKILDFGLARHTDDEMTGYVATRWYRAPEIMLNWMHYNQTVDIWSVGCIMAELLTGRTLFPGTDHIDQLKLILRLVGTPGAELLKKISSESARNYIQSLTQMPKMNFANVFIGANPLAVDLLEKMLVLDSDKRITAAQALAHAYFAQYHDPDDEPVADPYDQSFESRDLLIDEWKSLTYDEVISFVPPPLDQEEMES
E105A was tested, and the “effect of a mutation on the interaction” value was “with no effect”.

Variants of: B7
Details: with ttc23_human TTC23, Q5W5X9
For L12H, the “effect of a mutation on the interaction” value was “disrupting interaction strength”.
